From paper PMC2753297
Numbering of substitutions follows the chain as printed. Names may count otherwise. Blank lines part the entries; values can stand above or below the binder they belong to.

Biological target: T1, ADAM10 (immunoprecipitated with anti-ADAM10 from HEK293T cells), O14672
T1 chain: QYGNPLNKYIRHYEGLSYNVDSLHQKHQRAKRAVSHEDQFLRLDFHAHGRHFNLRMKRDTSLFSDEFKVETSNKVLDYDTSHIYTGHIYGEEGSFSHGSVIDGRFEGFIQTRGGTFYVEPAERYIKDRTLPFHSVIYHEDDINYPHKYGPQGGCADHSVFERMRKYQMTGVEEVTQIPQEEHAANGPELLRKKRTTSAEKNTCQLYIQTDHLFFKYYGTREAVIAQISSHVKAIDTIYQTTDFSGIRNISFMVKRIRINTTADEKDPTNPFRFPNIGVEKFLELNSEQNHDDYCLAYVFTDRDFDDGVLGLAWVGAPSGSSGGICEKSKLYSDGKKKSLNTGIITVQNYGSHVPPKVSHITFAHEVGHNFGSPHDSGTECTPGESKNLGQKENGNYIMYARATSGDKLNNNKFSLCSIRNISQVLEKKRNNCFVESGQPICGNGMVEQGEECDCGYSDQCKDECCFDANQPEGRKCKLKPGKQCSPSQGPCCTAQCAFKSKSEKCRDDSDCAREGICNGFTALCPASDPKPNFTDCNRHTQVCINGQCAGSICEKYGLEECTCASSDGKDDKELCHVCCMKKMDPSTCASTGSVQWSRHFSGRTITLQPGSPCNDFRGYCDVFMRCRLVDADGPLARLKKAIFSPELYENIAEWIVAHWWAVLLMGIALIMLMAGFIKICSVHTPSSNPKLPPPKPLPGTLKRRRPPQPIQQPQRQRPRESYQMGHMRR
Test: co-immunoprecipitation (ADAM10 IP, EphA3 immunoblot, quantified)
Conditions: chain shown with the change; ephrin-A5-treated EphA3-transfected cells; n = 2 experiments; parent: est. 1.1; read off a plot; scale: ratio of EphA3 co-IP/lysate, EphA3[2YE] as internal reference

- response: 0.42
B1: Wt EphA3-GFP, P29320 Y596E; Y602E; K653M (protein)
chain: ELIPQPSNEVNLLDSKTIQGELGWISYPSHGWEEISGVDEHYTPIRTYQVCNVMDHSQNNWLRTNWVPRNSAQKIYVELKFTLRDCNSIPLVLGTCKETFNLYYMESDDDHGVKFREHQFTKIDTIAADESFTQMDLGDRILKLNTEIREVGPVNKKGFYLAFQDVGACVALVSVRVYFKKCPFTVKNLAMFPDTVPMDSQSLVEVRGSCVNNSKEEDPPRMYCSTEGEWLVPIGKCSCNAGYEERGFMCQACRPGFYKALDGNMKCAKCPPHSSTQEDGSMNCRCENNYFRADKDPPSMACTRPPSSPRNVISNINETSVILDWSWPLDTGGRKDVTFNIICKKCGWNIKQCEPCSPNVRFLPRQFGLTNTTVTVTDLLAHTNYTFEIDAVNGVSELSSPPRQFAAVSITTNQAAPSPVLTIKKDRTSRNSISLSWQEPEHPNGIILDYEVKYYEKQEQETSYTILRARGTNVTISSLKPDTIYVFQIRARTAAGYGTNSRKFEFETSPDSFSISGESSQVVMIAISAAVAIILLTVVIYVLIGRFCGYKSKHGADEKRLHFGNGHLKLPGLRTEVDPHTEEDPTQAVHEFAKELDATNISIDKVVGAGEFGEVCSGRLKLPSKKEISVAIMTLKVGYTEKQRRDFLGEASIMGQFDHPNIIRLEGVVTKSKPVMIVTEYMENGSLDSFLRKHDAQFTVIQLVGMLRGIASGMKYLSDMGYVHRDLAARNILINSNLVCKVSDFGLSRVLEDDPEAAYTTRGGKIPIRWTSPEAIAYRKFTSASDVWSYGIVLWEVMSYGERPYWEMSNQDVIKAVDEGYRLPPPMDCPAALYQLMLDCWQKDRNNRPKFEQIVSILDKLIRNPGSLKIITSAAARPSNLLLDQSNVDITTFRTTGDWLNGVWTAHCKEIFTGVEYSSCDTIAKISTDDMKKVGVTVVGPQKKIISSIKALETQSKNGPVPV

- response: 1
B2: Wt EphA3-GFP, P29320 Y596E; Y602E (protein)
chain: B1 chain with M633K
